Target: 6xHis-TrxA-BoNT/A2-HC (UniProt Q45894 871-1296)
Assay: pull-down
Conditions: both partners purified

6xHis-TrxA-BoNT/A2-HC, sequence (Q45894 871-1296): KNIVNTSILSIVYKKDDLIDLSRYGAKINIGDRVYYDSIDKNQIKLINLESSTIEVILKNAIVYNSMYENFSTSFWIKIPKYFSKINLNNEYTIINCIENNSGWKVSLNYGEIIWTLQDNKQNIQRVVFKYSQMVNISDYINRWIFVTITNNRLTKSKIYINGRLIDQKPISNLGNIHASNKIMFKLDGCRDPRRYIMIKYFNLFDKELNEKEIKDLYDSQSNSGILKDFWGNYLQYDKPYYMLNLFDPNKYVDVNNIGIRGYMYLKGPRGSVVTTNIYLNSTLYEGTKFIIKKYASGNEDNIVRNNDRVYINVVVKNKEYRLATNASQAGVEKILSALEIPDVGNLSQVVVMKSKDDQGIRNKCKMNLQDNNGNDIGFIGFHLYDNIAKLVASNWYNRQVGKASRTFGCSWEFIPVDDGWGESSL

B1: luminal domain (LD) of human SV2C (domain or fragment, UniProt Q496J9 456-574, looked up)
chain: DVIKPLQSDEYALLTRNVERDKYANFTINFTMENQIHTGMEYDNGRFIGVKFKSVTFKDSVFKSCTFEDVTSVNTYFKNCTFIDTVFDNTDFEPYKFIDSEFKNCSFFHNKTGCQITFD
notes: also called SV2C-LD; untagged SV2C-LD; not shown: 6xHis, N-terminal, cleaved
B1: binds.
